Results reported in the Human Domainome abundance scans (Beltran et al. 2025).
± gives the uncertainty stated by the source.

B1: Far upstream element-binding protein 2, residues 142 to 214; numbered along this chain, Q92945 (parent)
chain: RTSMTEEYRVPDGMVGLIIGRGGEQINKIQQDSGCKVQISPDSGGLPERSVSLTGAPESVQKAKMMLDDIVSR

Variants of: B1
Assay: abundance fitness (aPCA) (normalised: wild type 0, dead -1); higher = more abundant; growth selection in yeast, the domain comes from the species named
Details: Homo sapiens

Abundance fitness of substitutions, site by site:
M14: D -0.209 ± 0.06
T2: Q -0.421 ± 0.057 | Y -0.016 ± 0.11 | N 0.109 ± 0.08 | P -0.227 ± 0.052 | R -0.169 ± 0.04 | S 0.071 ± 0.046 | V 0.004 ± 0.048 | W -0.567 ± 0.06
E6: L 0.07 ± 0.042 | V 0.097 ± 0.039 | C 0.051 ± 0.053 | D -0.171 ± 0.053 | S -0.017 ± 0.041 | M 0.187 ± 0.052 | K -0.027 ± 0.05 | N -0.255 ± 0.069 | Y -0.147 ± 0.066 | G -0.189 ± 0.034 | R -0.068 ± 0.035 | I -0.086 ± 0.069 | H -0.062 ± 0.065 | F -0.1 ± 0.073 | T 0.125 ± 0.048 | A -0.021 ± 0.039 | W -0.086 ± 0.046 | Q 0.045 ± 0.053
G16: V -0.619 ± 0.048 | R -0.078 ± 0.038 | P -0.015 ± 0.046 | N -0.093 ± 0.089 | K -0.068 ± 0.056 | C -0.334 ± 0.06 | A -0.037 ± 0.043 | I -0.994 ± 0.12 | D 0.136 ± 0.064 | H -0.019 ± 0.075 | L -0.495 ± 0.049 | F -0.499 ± 0.1 | S -0.076 ± 0.043 | W -0.229 ± 0.056 | Q -0.034 ± 0.056 | E 0.049 ± 0.053 | T -0.101 ± 0.052
I18: D -0.312 ± 0.063 | Y -0.494 ± 0.079 | K -0.333 ± 0.052 | P -0.324 ± 0.055 | S -0.398 ± 0.046 | T -0.282 ± 0.052 | A -0.276 ± 0.042 | Q -0.346 ± 0.054 | M -0.17 ± 0.055 | C -0.595 ± 0.066 | H -0.51 ± 0.072 | W -0.562 ± 0.049 | L 0.035 ± 0.042 | V -0.158 ± 0.041 | G -0.363 ± 0.037 | F -0.122 ± 0.071 | N -0.345 ± 0.068 | E -0.287 ± 0.054
E7: V -0.194 ± 0.04 | P -0.137 ± 0.047 | C -0.178 ± 0.051 | D -0.036 ± 0.057 | T 0.046 ± 0.045 | S -0.088 ± 0.04 | I -0.028 ± 0.065 | M -0.02 ± 0.049 | Y 0.028 ± 0.063 | A -0.136 ± 0.039 | K -0.115 ± 0.048 | Q 0.017 ± 0.05 | W -0.1 ± 0.043 | L 0.021 ± 0.04 | H 0.043 ± 0.069 | F 0.074 ± 0.073 | N -0.109 ± 0.066
G20: Q -0.4 ± 0.061 | K -0.401 ± 0.062 | S -0.298 ± 0.043 | M -0.805 ± 0.087 | T -0.59 ± 0.059 | I -1.09 ± 0.18 | P -0.576 ± 0.053 | L -1.07 ± 0.059 | N -0.389 ± 0.1 | W -0.96 ± 0.067 | F -1.01 ± 0.14 | V -1.38 ± 0.076 | D -0.086 ± 0.065 | R -0.428 ± 0.042 | C -1.28 ± 0.11 | H -0.576 ± 0.099
G13: N 0.18 ± 0.062 | Y -0.005 ± 0.091 | F -0.184 ± 0.091 | D 0.134 ± 0.061 | P -0.124 ± 0.046 | A -0.072 ± 0.044 | M -0.052 ± 0.055 | V -0.389 ± 0.047 | S 0.122 ± 0.041 | K 0.066 ± 0.055 | E 0.12 ± 0.051 | I -0.039 ± 0.08 | C -0.127 ± 0.056 | R 0.07 ± 0.037 | W -0.097 ± 0.051 | L -0.174 ± 0.044 | Q 0.09 ± 0.051 | T 0.035 ± 0.046
D12: N -0.14 ± 0.079 | P 0.051 ± 0.053 | Y -0.204 ± 0.071 | I 0.041 ± 0.095 | T 0.105 ± 0.059 | Q -0.039 ± 0.058 | R 0.088 ± 0.043 | G -0.04 ± 0.047 | H 0.013 ± 0.076 | C -0.175 ± 0.071 | W -0.524 ± 0.062 | E -0.003 ± 0.055 | V -0.097 ± 0.046 | K -0.032 ± 0.061 | F -0.153 ± 0.075 | S 0.054 ± 0.048
V15: H -0.214 ± 0.1 | Q -0.272 ± 0.06 | G -0.282 ± 0.058 | K -0.251 ± 0.085 | N -0.376 ± 0.13 | T -0.227 ± 0.059 | R -0.335 ± 0.05 | M 0.035 ± 0.073 | I -0.06 ± 0.079 | Y -0.197 ± 0.092 | E -0.03 ± 0.065 | A -0.053 ± 0.058 | C -0.22 ± 0.077 | P -0.462 ± 0.064 | L 0.068 ± 0.05 | W -0.081 ± 0.063 | D -0.217 ± 0.081 | F -0.076 ± 0.088 | S -0.219 ± 0.053
R9: N 0.078 ± 0.076 | H 0.135 ± 0.069 | C -0.132 ± 0.061 | T 0.053 ± 0.05 | I 0.055 ± 0.076 | G -0.235 ± 0.035 | L 0.076 ± 0.042 | A -0.145 ± 0.04 | K 0.119 ± 0.057 | Q 0.137 ± 0.05 | E -0.094 ± 0.045 | W -0.033 ± 0.044 | V -0.046 ± 0.04 | M 0.064 ± 0.058 | S -0.024 ± 0.042 | F 0.068 ± 0.068 | Y 0.025 ± 0.066 | P 0.041 ± 0.05 | D -0.155 ± 0.059
